# From PMC2132594
# Biological target: human erythrocyte spectrin (heterodimer of α and β chains) (human) (UniProt P02549)
# Assay: single-particle fluorescence imaging
# Details: remark: other sources report otherwise
substance,measurement,value
"human erythrocyte spectrin (heterodimer of α and β chains), P02549 1-2419; P11277 1-2137",percent of spots in the second peak (tetramers),40%
same,percent of the total spectrin in the second peak (tetramers),59%
